Data as given in paper PMC2813981.

Key:
[1] = biological target: fibrinogen fragment D (human); assay: SPR
[2] = biological target: fibrin matrix (thrombin- and factor XIIIa-treated human fibrinogen) (human) (UniProt P02671); assay: confocal microscopy of perfused fibrin matrices
UniProt P02671, sequence (P02671 36-866, chain 1 of 3): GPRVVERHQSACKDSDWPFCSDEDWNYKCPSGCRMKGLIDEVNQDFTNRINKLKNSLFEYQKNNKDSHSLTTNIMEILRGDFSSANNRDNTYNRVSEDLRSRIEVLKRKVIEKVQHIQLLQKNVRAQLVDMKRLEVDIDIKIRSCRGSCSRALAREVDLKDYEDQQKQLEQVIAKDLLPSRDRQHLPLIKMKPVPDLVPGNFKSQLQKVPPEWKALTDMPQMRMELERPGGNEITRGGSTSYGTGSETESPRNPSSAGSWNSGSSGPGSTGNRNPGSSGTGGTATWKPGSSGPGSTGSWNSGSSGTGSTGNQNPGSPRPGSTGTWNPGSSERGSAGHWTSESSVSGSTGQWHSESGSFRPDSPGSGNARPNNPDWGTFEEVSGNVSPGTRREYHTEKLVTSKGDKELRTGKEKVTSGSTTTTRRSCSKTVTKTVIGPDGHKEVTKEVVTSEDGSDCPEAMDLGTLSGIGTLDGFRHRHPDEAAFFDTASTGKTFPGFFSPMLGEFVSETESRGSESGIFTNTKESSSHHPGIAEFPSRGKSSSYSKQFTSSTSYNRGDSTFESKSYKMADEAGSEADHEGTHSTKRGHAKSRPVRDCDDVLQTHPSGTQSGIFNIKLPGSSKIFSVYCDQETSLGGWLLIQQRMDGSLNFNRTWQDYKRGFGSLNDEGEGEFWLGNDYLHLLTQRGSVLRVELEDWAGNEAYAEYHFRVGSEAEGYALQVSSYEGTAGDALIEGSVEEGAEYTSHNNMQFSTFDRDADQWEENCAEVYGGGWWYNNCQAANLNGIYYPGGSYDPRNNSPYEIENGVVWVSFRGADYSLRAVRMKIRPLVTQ
UniProt P02671, sequence (P02675 45-491, chain 2 of 3, further chain): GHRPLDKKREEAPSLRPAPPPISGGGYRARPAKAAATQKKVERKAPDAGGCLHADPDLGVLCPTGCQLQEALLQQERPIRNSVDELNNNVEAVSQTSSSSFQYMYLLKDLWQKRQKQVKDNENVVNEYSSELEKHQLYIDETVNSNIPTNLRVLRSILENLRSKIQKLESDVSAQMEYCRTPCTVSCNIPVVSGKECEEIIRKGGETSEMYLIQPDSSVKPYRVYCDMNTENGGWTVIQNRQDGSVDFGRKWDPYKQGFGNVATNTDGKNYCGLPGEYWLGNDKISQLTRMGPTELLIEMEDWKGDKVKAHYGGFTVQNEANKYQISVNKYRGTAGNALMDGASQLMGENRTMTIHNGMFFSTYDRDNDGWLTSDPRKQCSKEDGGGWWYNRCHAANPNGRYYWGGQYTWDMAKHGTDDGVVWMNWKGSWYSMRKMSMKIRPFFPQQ
UniProt P02671, sequence (P02679 27-453, chain 3 of 3, further chain): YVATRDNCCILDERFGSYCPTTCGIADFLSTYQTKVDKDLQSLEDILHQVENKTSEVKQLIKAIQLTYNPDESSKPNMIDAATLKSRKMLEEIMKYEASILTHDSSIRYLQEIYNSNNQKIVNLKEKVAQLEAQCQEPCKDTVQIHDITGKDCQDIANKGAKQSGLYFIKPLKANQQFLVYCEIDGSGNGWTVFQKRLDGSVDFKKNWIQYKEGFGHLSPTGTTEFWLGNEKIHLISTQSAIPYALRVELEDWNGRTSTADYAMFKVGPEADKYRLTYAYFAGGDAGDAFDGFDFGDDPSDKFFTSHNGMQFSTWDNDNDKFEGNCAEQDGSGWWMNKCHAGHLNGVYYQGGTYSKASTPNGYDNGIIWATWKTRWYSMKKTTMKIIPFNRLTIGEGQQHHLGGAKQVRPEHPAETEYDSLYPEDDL

Row | KD with a 10-molar excess of soluble GPRP peptide [1] | Kd [1] | percent of fibrin matrix still retaining the conjugate after perfusion [2] | Substance
1 | 43 µM | 3 µM | – | GPRP-FnIII9-10 (designed binder)
2 | – | – | 12.8% | GPRP-FnIII9-10-AF633 (designed binder)
3 | – | 125 µM | – | GPRV-FnIII9-10 (designed binder)
